Article PMC11002309, “Cancer-associated polybromo-1 bromodomain 4 missense variants variably impact bromodomain ligand binding and cell growth suppression” (The Journal of Biological Chemistry, 2024)
Changes are numbered by the printed parent chain.

Molecular target: T1, biotinylated histone H3K14ac(1–20) peptide (acetyl-lysine at K14; biotin on the added C-terminal lysine; C-terminal amide (CONH2))
T1 construct: histone H3, residues 1-20; added C-terminal lysine that carries the biotin; also called H3K14ac peptide; Kac peptide; source: synthetic peptide, bought: Peptide 2.0
Assay: AlphaScreen or HTRF; full titration: His6-PBRM1-BD4 protein 0.001–2 μM against 50 nM biotinylated H3K14ac(1–20) peptide; streptavidin donor and nickel-chelate acceptor beads; 1× AlphaLISA Epigenetics buffer, 0.05% Tween 20, 2 μM TCEP; room temperature; n = 3
Details: both partners purified

B1: PBRM1-BD4 M586I (domain or fragment, human, UniProt Q86U86-5 496-637, looked up)
chain: GDSMISSATSDTGSAKRKSKKNIRKQRMKILFNVVLEAREPGSGRRLCDLFMVKPSKKDYPDYYKIILEPMDLKIIEHNIRNDKYAGEEGIIEDMKLMFRNARHYNEEGSQVYNDAHILEKLLKEKRKELGPLPDDDDMASP
notes: polybromo-1 (PBRM1), fourth bromodomain (BD4) construct, aa 496-637, cancer-associated missense variant; source: E. coli BL21(DE3), purified (Ni-NTA, gel filtration)
Q: For B1, which EC50 is on record?
A: The EC50 was 490 ± 130 nM.

B2: PBRM1-BD4 P556S (domain or fragment, human, UniProt Q86U86-5 496-637, looked up)
chain: B1 chain with P61S, I91M
notes: as for B1
Q: What does the source list for B2?
A: EC50: 1000 ± 90 nM; fold reduction of affinity against WT: 2 to 15 fold

B3: PBRM1-BD4 R576L (domain or fragment, human, UniProt Q86U86-5 496-637, looked up)
chain: B1 chain with R81L, I91M
notes: as for B1
Q: Which results are given for B3?
A: EC50: 210 ± 20 nM; fold reduction of affinity against WT: 2 to 15 fold
